The values below are quoted from earlier work in publication PMC6322933.

In this series the target is ZPI (Homo sapiens) (UniProt Q9UK55).
UniProt Q9UK55, sequence (Q9UK55 22-444): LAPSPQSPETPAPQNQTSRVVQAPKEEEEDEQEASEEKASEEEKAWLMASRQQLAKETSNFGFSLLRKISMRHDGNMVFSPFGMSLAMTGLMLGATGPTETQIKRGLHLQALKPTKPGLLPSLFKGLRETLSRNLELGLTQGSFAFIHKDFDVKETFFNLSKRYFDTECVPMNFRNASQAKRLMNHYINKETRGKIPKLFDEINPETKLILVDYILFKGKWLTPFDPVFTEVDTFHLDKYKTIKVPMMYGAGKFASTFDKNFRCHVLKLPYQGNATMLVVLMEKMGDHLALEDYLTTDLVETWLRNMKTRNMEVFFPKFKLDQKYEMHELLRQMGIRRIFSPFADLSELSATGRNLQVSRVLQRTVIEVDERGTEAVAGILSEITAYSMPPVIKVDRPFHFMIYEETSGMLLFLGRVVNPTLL

On to Protein Z (from UniProt P22891), for which the Kd was 600 pM.
